Laboratory results: doi:10.1101/2020.08.31.274639

Target: SARS-CoV-2 main protease 3CLpro (SARS-CoV-2)
Experiment: crystal structure

SARS-CoV-2 main protease 3CLpro (enzyme)
stoichiometry N: 2
